Positions count from the first letter of the chain named.

Assay [1] addresses T1, Human His-tagged RBP4 (residues 19-201), soluble (human, UniProt P02753 19-201). The assay is described as follows: yeast surface display, flow cytometry: soluble His-tagged RBP4 titrated on yeast displaying the binder, anti-penta-His detection, with 5 µM A1120; mean of three. An excerpt:
(§1) "a" can be part of a soluble protein (secreted or exogenously added) or of a transmembrane construct and "c" can be part of a signal transducing construct (shown in A and B). Of course, "a" and "c" can be integrated in the constructs vice versa (not shown). There are many more possible arrangements (not shown). […] RBP4-binding was detected with an anti-penta-His antibody and subsequently analyzed by flow cytometry.
(A flow cytometer gives signals particle by particle.)

Assay [2] has as its target T1, Human His-tagged RBP4 (residues …). The assay is described as follows: yeast surface display, flow cytometry: soluble His-tagged RBP4 titrated on yeast displaying the binder, anti-penta-His detection, with 5 µM A1120.
Description: as §1

Assay [3] shares this target. Kind of assay: yeast display, + A1120; mean ± S.D., n=3.
The target is the same in assay [4]. The assay is described as follows: ITC, + A1120; mean ± S.D., n=4. Here is the method: (§2) The samples were centrifuged (17000 g, 10 min, 20° C.) and dialysed against the same buffer (PBS). RBP4 protein solution was applied to the sample cell and the respective RBP4 binding interaction partners were titrated with varying intervals. Different concentrations both for RBP4 and RBP4 binding interaction partners were used. […] Data analysis was performed with the MicroCal PEAQ-ITC analysis software and the resulting data were fitted to a one-set-of-sites binding model. […] The integrated data were fitted to one-set-of-sites binding model to calculate the K_D values in FIG. 18.
On the technique in general: ITC needs no label: the signal is the heat of the interaction.

For assay [5] the target is unchanged. Kind of assay: ITC; ratio of the KD without to the KD with A1120. Here is the method: as §2
For assay [6] the target is unchanged. The assay is described as follows: ITC, -A1120; mean ± S.D., n=4. Here is the method: as §2
Assay [7] has the same target. Kind of assay: yeast surface display, flow cytometry: soluble His-tagged RBP4 titrated on yeast displaying the binder, anti-penta-His detection, with 5 µM A1120; mean of three. Here is the method:
All small molecules were present at a concentration of 5 µM. RBP4-binding was detected with an anti-penta-His antibody and subsequently analyzed by flow cytometry.
This is another data set of the same source.

Assay [8] has the same target. Kind of assay: SPR (Biacore T200), single-cycle kinetics, RBP4 immobilised on a CM5 chip, RS3 injected at 6.25-100 nM, with 5 µM A1120; steady-state analysis; one representative experiment of four. As for the experimental part:
(§3) Applied concentrations of RS3 are indicated in the plots. […] Figure 17B: Figure 17C:
(§4) The antigen (RBP4) was coated onto a CM5 chip (GE Healthcare) and incubated with various concentrations of lipocalin-fold binding interaction partner solution in HBS-EP (GE Healthcare), followed by a dissociation phase in HBS-EP. […] Finally, K_d values (dissociation constants) were obtained by steady-state analysis.
For orientation: In SPR one partner is held on a chip, and binding of the other changes the refractive index at the surface.

Assay [9] shares this target. Kind of assay: SPR, + A1120; mean ± S.D., n=4. Here is the method:
as §4

For assay [10] the target is unchanged. The assay is described as follows: SPR, -A1120; mean ± S.D., n=4. Here is the method: as §4
The target is the same in assay [11]. The assay is described as follows: SPR (Biacore T200), single-cycle kinetics, RBP4 immobilised on a CM5 chip, RS3 injected at 937.5-15000 nM, without A1120; steady-state analysis; one representative experiment of four. As for the experimental part:
as §3, §4

B1: RF3, FN3-based lipocalin-fold binding interaction partner, displayed on the surface of yeast (designed binder)
chain: VSDVPRDLEVVAATPTSLLISWYYPNASHAGYYRITYGETGGNSPVQEFTVPFSIRYTIATISGLKPGVDYTITVYAVTASCQYCSYPISINYRTEIDKPSQ
notes: not shown: Yeast-display carrier of the pCTCON2 construct (Aga2p anchor, HA tag, linker, c-myc tag)
The term Kd denotes the equilibrium constant for the complex coming apart. As for B1, in assay [1], the Kd was 67 nM.

B2: RF2, FN3-based lipocalin-fold binding interaction partner, displayed on the surface of yeast (designed binder)
chain: VSDVPRDLEVVAATPTSLLISWYYPNASHAGYYRITYGETGGNSPVQEFTVPFSIRYTIATISGLKPGVDYTITVYAVTDYAYYYRLSEPISINYRTEIDKPSQ
notes: as for B1
Usually EC50 (read off the curve) stands for the concentration needed to bring the measured effect to its halfway point. The low end stands for an effect from little substance, the high end for a need for much substance. For B2, in [2], the “EC50 (read off the curve)” value is roughly 40 nM. In addition, the Kd in [1] came out at 41.8 nM; in [3], 65 nM.

B3: RF2, FN3-based RBP4 binding interaction partner, soluble protein (designed binder)
chain: B2 chain
notes: Expressed in E. coli as His6-SUMO fusion; Monomeric by SEC
Regarding B3, the figures for the Kd in assay [4] and in assay [6] were 279 nM and 4380 nM, respectively. Further, the “KD,-A1120 / KD,+A1120” value in assay [5] worked out at 16.

B4: RF1, FN3-based lipocalin-fold binding interaction partner, displayed on the surface of yeast (designed binder)
chain: B2 chain with I35V, Y71H, L87S
notes: as for B1
For the molecule B4, binding in [1] was put at a Kd of 169 nM. The “EC50 (read off the curve)” value in assay [7] is roughly 6 nM.

B5: RS2, rcSso7d-based lipocalin-fold binding interaction partner, displayed on the surface of yeast (designed binder)
chain: ATVKLTYQGEEKQVDISKIKRVARYGQGIYFDYGEGGGAWGYGSVSEKDAPKELLQMLEKQ
notes: not shown: Yeast display carrier of pCTCON2 (Aga2p, HA tag, linker, C-terminal c-myc tag)
With B5, the “EC50 (read off the curve)” value in [2] was roughly 3 nM. This molecule showed a Kd in assay [1] of 2.9 nM.

B6: RS5, rcSso7d-based lipocalin-fold binding interaction partner, displayed on the surface of yeast (designed binder)
chain: B5 chain with L5F, K48E
notes: as for B1
As to B6, the Kd was determined as 69.5 nM in [1] and 80 nM in assay [3].

B7: RS4, rcSso7d-based lipocalin-fold binding interaction partner, displayed on the surface of yeast (designed binder)
chain: B5 chain with V3A, L5F, D32S, G34D, W40Y
notes: as for B5
In assay [1], B7 yielded a Kd of 47.6 nM.

B8: RS3, rcSso7d-based RBP4 binding interaction partner, soluble protein (designed binder)
chain: B5 chain with G28N, D32S, G34D, W40Y, G41D, S44A
notes: as for B3
For the molecule B8, the Kd was 11 nM in assay [8]; 9 nM in [9]; 7 nM in [4]; 4950 nM in assay [10]; 6130 nM in assay [11]; 2690 nM in assay [6]. The “KD,-A1120 / KD,+A1120” value in assay [5] was determined as 384.

B9: RS5, rcSso7d-based RBP4 binding interaction partner, soluble protein (designed binder)
chain: B5 chain with L5F, K48E
notes: as for B3
With B9, the Kd in assay [9] came out at 38 nM; in [4] it was 17 nM; in assay [10], 11000 nM; in [6], 3780 nM. Further, the “KD,-A1120 / KD,+A1120” value in assay [5] worked out at 222.

B10: RS3, rcSso7d-based lipocalin-fold binding interaction partner, displayed on the surface of yeast (designed binder)
chain: B5 chain with G28N, D32S, G34D, W40Y, G41D, S44A
notes: as for B5
For the molecule B10, the “EC50 (read off the curve)” value in assay [2] is roughly 10 nM; in [7], roughly 20 nM. Also, the equilibrium dissociation constant (Kd) in assay [1] is 11.5 nM; in assay [3], 13 nM.

B11: RS1, rcSso7d-based lipocalin-fold binding interaction partner, displayed on the surface of yeast (designed binder)
chain: ATVKFTYQGEEEQVDISKIKKVARYGQNIYFSYDEGGGAWDYGGVSEKDAPKELLQMLEKQ
notes: as for B5
With B11, in assay [2], the “EC50 (read off the curve)” value lay in the range of 1 to 2 nM. This molecule also registered a dissociation constant Kd in assay [1] of 1.5 nM.

The values above are taken from patent US11844813 (ST ANNA KINDERKREBSFORSCHUNG, dated 2023).
